In the test the target is T1, human transferrin hTF (Sigma T-4132) (human, UniProt P02787 20-698).
T1 construct: Bought protein
The experiment in a line: gel filtration (Superdex 200 PC 3.2/30) of each protein and of the mixture, fractions analysed by SDS-PAGE. Background: Size exclusion chromatography separates by hydrodynamic size, large species first.

T1 sequence (P02787 20-698 limits assumed): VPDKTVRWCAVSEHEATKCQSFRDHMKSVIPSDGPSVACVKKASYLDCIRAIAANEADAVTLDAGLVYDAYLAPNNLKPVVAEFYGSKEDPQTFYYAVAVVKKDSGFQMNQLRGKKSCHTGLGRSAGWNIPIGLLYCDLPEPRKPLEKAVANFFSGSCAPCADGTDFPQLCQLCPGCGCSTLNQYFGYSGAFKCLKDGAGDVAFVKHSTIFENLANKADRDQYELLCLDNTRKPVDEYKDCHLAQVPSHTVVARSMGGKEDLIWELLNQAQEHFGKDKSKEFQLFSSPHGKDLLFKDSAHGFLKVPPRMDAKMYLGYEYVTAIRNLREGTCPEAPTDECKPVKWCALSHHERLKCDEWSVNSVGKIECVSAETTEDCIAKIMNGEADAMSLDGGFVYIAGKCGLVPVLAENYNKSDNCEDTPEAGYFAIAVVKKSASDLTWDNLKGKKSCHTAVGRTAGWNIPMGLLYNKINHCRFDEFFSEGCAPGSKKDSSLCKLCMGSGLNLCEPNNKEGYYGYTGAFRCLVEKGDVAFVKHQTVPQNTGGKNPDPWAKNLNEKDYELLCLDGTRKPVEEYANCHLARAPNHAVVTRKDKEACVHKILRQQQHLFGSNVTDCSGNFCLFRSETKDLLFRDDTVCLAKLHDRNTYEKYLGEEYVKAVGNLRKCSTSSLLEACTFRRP

B1: recombinant NMB1870 (strain MC58, variant 1), His-tag fusion expressed in E. coli without the leader peptide (other)
chain: CSSGGGGVAADIGAGLADALTAPLDHKDKGLQSLTLDQSVRKNEKLKLAAQGAEKTYGNGDSLNTGKLKNDKVSRFDFIRQIEVDGQLITLESGEFQVYKQSHSALTAFQTEQIQDSEHSGKMVAKRQFRIGDIAGEHTSFDKLPEGGRATYRGTAFGSDDAGGKLTYTIDFAAKQGNGKIEHLKSPELNVDLAAADIKPDGKRHAVISGSVLYNQAEKGSYSLGIFGGKAQEVAGSAEVKTVNGIRHIGLAAKQ
notes: also called purified NMB1870; the recombinant protein; not shown: His-tag (pET-21b+ vector)
Regarding B1, the binding result is given as “no binding (tested: 7 µM)”.

(Values after patent publication US20180028641A1 (GlaxoSmithKline, published 2018).)
